Results: article PMC5830531

Legend:
Experiment in all cases: EMSA
[1] = system: MBP-A3H m1 monomer (Homo sapiens (haplotype II)); conditions: EMSA: 50 mM HEPES pH 7.5, 250 mM NaCl, 1 mM DTT, 2.5 mM EDTA, 10% glycerol, on ice 10 min, protein up to 8 uM, 8% native PAGE
[2] = system: MBP-A3H m1+W115A/C116S monomer (Homo sapiens (haplotype II)); conditions: EMSA: 50 mM HEPES pH 7.5, 250 mM NaCl, 1 mM DTT, 2.5 mM EDTA, 10% glycerol, on ice 10 min, protein up to 8 uM, 8% native PAGE
[3] = system: MBP-A3H m1+H114A monomer (Homo sapiens (haplotype II)); conditions: EMSA: 50 mM HEPES pH 7.5, 250 mM NaCl, 1 mM DTT, 2.5 mM EDTA, 10% glycerol; on ice 10 min; protein up to 8 uM; 1 nM RNA or 10 nM DNA; 8% native PAGE; n=3 …
[4] = smeared bands, approximate, 1 nM RNA or 10 nM …, n=3, Table

13 nt ssDNA
Kd ([1]; approximate estimate, monomer assigned from the monomer comparison, 1 nM RNA or 10 nM DNA, n=3 …): 272 nM | Kd ([2]; approximate estimate, 1 nM RNA or 10 nM DNA, n=3 …): 497 nM

8 nt ssDNA
Kd [1, 4]: 983 nM | Kd [2, 4]: 2960 nM

50 nt ssRNA
Kd ([1]; 1 nM RNA or 10 nM DNA, n=3 …): 8 nM | Kd [3]: 34 nM | Kd ([2]; 1 nM RNA or 10 nM DNA, n=3 …): 12 nM
